From article doi:10.1101/2024.04.15.589559 come the findings set out here.

The target of this assay is pre-formed CPX-SNARE complex (Complexin 1 with Syntaxin1A, SNAP25B and VAMP2) (human | rat | mouse) (UniProt O14810).
pre-formed CPX-SNARE complex (Complexin 1 with Syntaxin1A, SNAP25B and VAMP2) (human | rat | mouse), sequence (O14810 whole entry, chain 1 of 4): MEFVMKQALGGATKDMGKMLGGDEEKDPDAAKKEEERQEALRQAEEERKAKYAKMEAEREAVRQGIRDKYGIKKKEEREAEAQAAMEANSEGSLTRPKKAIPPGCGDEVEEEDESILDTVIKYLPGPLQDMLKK
pre-formed CPX-SNARE complex (Complexin 1 with Syntaxin1A, SNAP25B and VAMP2) (human | rat | mouse), sequence (P32851 whole entry, chain 2 of 4, further chain): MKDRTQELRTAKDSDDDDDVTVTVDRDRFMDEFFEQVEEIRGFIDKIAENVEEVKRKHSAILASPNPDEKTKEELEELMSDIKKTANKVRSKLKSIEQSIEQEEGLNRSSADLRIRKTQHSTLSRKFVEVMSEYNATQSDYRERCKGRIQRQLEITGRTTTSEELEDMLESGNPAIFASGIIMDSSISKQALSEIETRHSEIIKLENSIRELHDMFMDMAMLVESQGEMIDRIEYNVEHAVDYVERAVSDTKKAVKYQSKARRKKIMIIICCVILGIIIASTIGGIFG
pre-formed CPX-SNARE complex (Complexin 1 with Syntaxin1A, SNAP25B and VAMP2) (human | rat | mouse), sequence (P60879 whole entry, chain 3 of 4, further chain): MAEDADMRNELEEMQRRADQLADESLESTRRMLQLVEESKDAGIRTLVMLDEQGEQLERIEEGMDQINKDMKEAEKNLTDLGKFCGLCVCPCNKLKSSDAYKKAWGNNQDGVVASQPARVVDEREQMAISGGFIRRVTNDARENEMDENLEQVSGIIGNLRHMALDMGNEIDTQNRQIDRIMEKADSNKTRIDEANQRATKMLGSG
pre-formed CPX-SNARE complex (Complexin 1 with Syntaxin1A, SNAP25B and VAMP2) (human | rat | mouse), sequence (P63027 whole entry, chain 4 of 4, further chain): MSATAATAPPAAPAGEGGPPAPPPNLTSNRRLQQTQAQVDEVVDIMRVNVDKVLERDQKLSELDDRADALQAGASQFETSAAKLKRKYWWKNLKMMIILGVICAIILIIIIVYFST

Consider “Syt7^DA (SUMO-Syt1^TMD-Syt7 with D225A, D227A, D233A, D357A, D359A) (from UniProt Q62747 17-403)”, for which the reduction in Ca2+ (100 μM)-evoked fusion of Syt1^WT/VAMP2 vesicles with Syt7^DA in the t-SNARE bilayer, 1:800 to 1:200 protein-to-lipid (~30% to ~70%) was 70%.
